In brackets after ≈: the same amount, converted by molar mass. Read-outs that look alike come from different tables or passages of the source.
Legend:
[1] = Solubility of therapeutic agent suspension in buffer; assay type: physicochemical; conditions: aqueous buffer; in the buffer at 37C
Source text: The therapeutic agent stored in the reservoir of the container comprises at least one of a solid comprising the therapeutic agent, a solution comprising the therapeutic agent, a suspension comprising the therapeutic agent, particles comprising the therapeutic agent adsorbed thereon, or particles reversibly bound to the therapeutic agent. For example, reservoir may comprise a suspension of a cortico-steroid such as triamcinolone acetonide to treat inflammation of the retina.

[2] = Critical micelle concentration (CMC) of surfactant, surface tension with Wilhelmy plate; assay type: physicochemical
Source text: The CMC can be determined from a variety of techniques such as measurements of surface tension using a Wilhelmy plate. The CMC for a particular surfactant may be dependent on a variety of parameters such as the concentrations of other components in the formulation and the temperature.
Surface tension measurements may be performed with a Wilhemy plate to determine the CMC; i.e., polysorbate 20 concentration threshold for constant surface tension. Devices can then be filled with formulations containing polysorbate 20 concentrations that are 0, 1, 5 and 20 times the CMC. These devices can be subjected to drug release testing and stability assays as described in Example 2.

[3] = rabbit, cited from earlier work
[4] = monkey, cited from earlier work
[5] = human, cited from earlier work
[6] = RRI of 0.02 and reservoir volume of 25 uL; as described in U.S. Pub. No. 2010/0255061; cited from earlier work

Compound: CC1(C)O[C@@H]2C[C@H]3[C@@H]4CCC5=CC(=O)C=C[C@]5(C)[C@@]4(F)[C@@H](O)C[C@]3(C)[C@]2(C(=O)CO)O1 [triamcinolone acetonide]
- solubility [1]: ~19 µg/mL (≈ 43.7 µM)

Compound: Polysorbate 20
- CMC (wt %) ([2]; CMC 1e−5 M): 0.001% wt %
- CMC (wt %) ([2]; CMC 8e−5 M): 0.01% wt %

Compound: Ranibizumab: antibody derivative (Fab fragment), VEGF inhibitor; active ingredient of Lucentis™
- half-life in the vitreous ([3]; listed as Lucentis™): two to four
- half-life in the vitreous ([3]; listed as ranibizumab): approximately 3 days
- half-life in the vitreous ([4]; listed as Lucentis™): two to four
- half-life in the vitreous ([4]; listed as ranibizumab): approximately 3 days
- half-life in the vitreous ([5]; listed as Lucentis™): about nine
- half-life in the vitreous ([5]; listed as ranibizumab): ~220 h
- half-life in device 100 [6]: about 100 days

Reference: patent US20140031769A1, “THERAPEUTIC AGENT FORMULATIONS FOR IMPLANTED DEVICES” (ForSight Vision4, Inc., priority 2010, published 2014)
